Data on one substance can be found in publication PMC12448032.

This test deals with PD-L1 (UniProt Q9EP73).
Sequence of UniProt Q9EP73 (Q9EP73 19-290): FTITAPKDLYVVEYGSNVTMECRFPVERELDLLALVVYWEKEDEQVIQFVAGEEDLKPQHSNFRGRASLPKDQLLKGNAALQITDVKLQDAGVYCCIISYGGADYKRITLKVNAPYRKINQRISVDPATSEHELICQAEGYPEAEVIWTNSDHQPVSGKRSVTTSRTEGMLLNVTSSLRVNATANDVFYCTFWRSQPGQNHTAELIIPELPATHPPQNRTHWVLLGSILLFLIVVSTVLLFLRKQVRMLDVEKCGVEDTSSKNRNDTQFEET

On to “programmed cell death-1 (PD1), mouse, overexpressed in 293 T cells (from UniProt Q02242 25-288) (receptor)”, for which the uptake by K7M2 cells of BI@PCM NPs (PD1-high membrane) compared to B@CM NPs (PD1-low membrane), flow cytometry, 4 h was 2.1 fold.
